From PMC6365974, “Characterization of an Aldehyde Oxidoreductase From the Mesophilic Bacterium Aromatoleum aromaticum EbN1, a Member of a New Subfamily of Tungsten-Containing Enzymes” (Frontiers in Microbiology, 2019)
Values belong to the molecule of their own block, whether it stands above or below them.

How the values were obtained:
[1] = biological target: T1, AORAa (Aromatoleum aromaticum, UniProt Q5P143); experiment: flavin fluorescence of supernatant of heat-denatured enzyme, phosphodiesterase treatment; format: binding; conditions: co-purified cofactor; site AorC (predicted)
T1 construct: gene aorB; native heterohexamer α2β2γ2, ca. 280 kDa (subunits 66, 46, 17 kDa), purified from phenylalanine-grown Δpdh cells, no tag; with Iron-sulfur protein, aldehyde oxidoreductase small subunit AorA

[2] = tested on: c1ccc(C[n+]2ccc(-c3cc[n+](Cc4ccccc4)cc3)cc2)cc1; experiment: purified protein; conditions: artificial electron acceptor, phenylacetaldehyde as co-substrate, 100 mM Tris-HCl pH 8.0, 28°C, probably reacts at an Fe-S cluster
[3] = substrate: O=CCc1ccccc1; experiment: purified protein; conditions: electron acceptor benzyl viologen, 100 mM Tris-HCl pH 8.0, 28°C, site AorB (W-cofactor, predicted)
[4] = substrate: O=Cc1ccccc1; experiment: purified protein; conditions: electron acceptor benzyl viologen, 100 mM Tris-HCl pH 8.0, 28°C, site AorB (W-cofactor, predicted)
[5] = substrate: CC=O; experiment: purified protein; conditions: electron acceptor benzyl viologen, 100 mM Tris-HCl pH 8.0, 28°C, site AorB (W-cofactor, predicted)
[6] = substrate: NC(=O)c1ccc[n+]([C@@H]2O[C@H](COP(=O)(O)OP(=O)(O)OC[C@H]3O[C@@H](n4cnc5c(N)ncnc54)[C@H](O)[C@@H]3O)[C@@H](O)[C@H]2O)c1; experiment: purified protein; format: biochemical, Aromatoleum aromaticum; conditions: electron acceptor, phenylacetaldehyde as co-substrate, 100 mM Tris-HCl pH 8.0, 28°C, site AorC (FAD, predicted)
[7] = biological target: T2, AorB, large W-cofactor binding subunit of aldehyde oxidoreductase AORAa from Aromatoleum aromaticum EbN1 (Aromatoleum aromaticum EbN1, UniProt Q5P143 1-616); experiment: co-purification by enzyme activity (DEAE-sepharose, hydroxyapatite, Superdex 200 gel filtration); endogenous enzyme purified from cell extract under anoxic conditions, followed by AOR activity; subunits separated by SDS-PAGE and identified by MALDI-TOF of tryptic fragments; conditions: partners not purified
T2 construct: AorB, large subunit (66 kDa on SDS-PAGE) of the tungsten-containing aldehyde oxidoreductase of Aromatoleum aromaticum EbN1; also called large subunit; aorB gene product; source: purified from A. aromaticum EbN1 strain SR7Δpdh as part of AORAa (DEAE-sepharose, hydroxyapatite, Superdex 200)
T2 sequence (looked up): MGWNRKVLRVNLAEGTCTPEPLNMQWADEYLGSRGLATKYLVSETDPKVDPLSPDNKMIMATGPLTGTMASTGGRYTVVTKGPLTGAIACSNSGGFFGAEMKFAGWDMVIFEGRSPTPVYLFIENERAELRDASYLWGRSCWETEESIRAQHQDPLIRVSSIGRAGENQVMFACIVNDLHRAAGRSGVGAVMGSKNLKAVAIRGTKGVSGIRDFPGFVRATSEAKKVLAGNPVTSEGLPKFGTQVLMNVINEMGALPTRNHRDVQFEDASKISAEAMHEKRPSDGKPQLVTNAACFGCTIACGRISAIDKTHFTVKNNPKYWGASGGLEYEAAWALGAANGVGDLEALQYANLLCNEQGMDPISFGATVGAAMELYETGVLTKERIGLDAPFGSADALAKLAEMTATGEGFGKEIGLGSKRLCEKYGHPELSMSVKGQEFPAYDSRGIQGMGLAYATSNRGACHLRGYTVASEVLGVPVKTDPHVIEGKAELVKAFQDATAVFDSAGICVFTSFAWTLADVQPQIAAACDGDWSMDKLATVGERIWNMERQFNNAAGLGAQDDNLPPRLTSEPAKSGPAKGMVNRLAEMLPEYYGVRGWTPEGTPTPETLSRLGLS

Molecule: Cc1cc2nc3c(=O)[nH]c(=O)nc-3n(C[C@H](O)[C@H](O)[C@H](O)COP(=O)(O)OP(=O)(O)OC[C@H]3O[C@@H](n4cnc5c(N)ncnc54)[C@H](O)[C@@H]3O)c2cc1C [FAD]
flavin fluorescence of supernatant of heat-denatured enzyme, phosphodiesterase t [1]: The presence of FAD in AORAa was confirmed by fluorescence spectroscopy

Molecule: AORAa (Aromatoleum aromaticum EbN1)
Km [2]: 23 µM
Vmax [2]: 21.2 µmol/min/mg
kcat [2]: 91 s⁻¹
kcat/Km [2]: 3.96e+06 M⁻¹ s⁻¹

B1: AORAa (Aromatoleum aromaticum EbN1) (protein)
chain: MGWNRKVLRVNLAEGTCTPEPLNMQWADEYLGSRGLATKYLVSETDPKVDPLSPDNKMIMATGPLTGTMASTGGRYTVVTKGPLTGAIACSNSGGFFGAEMKFAGWDMVIFEGRSPTPVYLFIENERAELRDASYLWGRSCWETEESIRAQHQDPLIRVSSIGRAGENQVMFACIVNDLHRAAGRSGVGAVMGSKNLKAVAIRGTKGVSGIRDFPGFVRATSEAKKVLAGNPVTSEGLPKFGTQVLMNVINEMGALPTRNHRDVQFEDASKISAEAMHEKRPSDGKPQLVTNAACFGCTIACGRISAIDKTHFTVKNNPKYWGASGGLEYEAAWALGAANGVGDLEALQYANLLCNEQGMDPISFGATVGAAMELYETGVLTKERIGLDAPFGSADALAKLAEMTATGEGFGKEIGLGSKRLCEKYGHPELSMSVKGQEFPAYDSRGIQGMGLAYATSNRGACHLRGYTVASEVLGVPVKTDPHVIEGKAELVKAFQDATAVFDSAGICVFTSFAWTLADVQPQIAAACDGDWSMDKLATVGERIWNMERQFNNAAGLGAQDDNLPPRLTSEPAKSGPAKGMVNRLAEMLPEYYGVRGWTPEGTPTPETLSRLGLS
Km [3]: 82 µM
Vmax [3]: 18.9 µmol/min/mg
kcat [3]: 81 s⁻¹
kcat/Km [3]: 990000 M⁻¹ s⁻¹
Km [4]: 67 µM
Vmax [4]: 21.4 µmol/min/mg
kcat [4]: 92 s⁻¹
kcat/Km [4]: 1.38e+06 M⁻¹ s⁻¹
Km [5]: 141 µM
Vmax [5]: 23.8 µmol/min/mg
kcat [5]: 103 s⁻¹
kcat/Km [5]: 730000 M⁻¹ s⁻¹
Km [6]: 63 µM
Vmax [6]: 12.5 µmol/min/mg
kcat [6]: 54 s⁻¹
kcat/Km [6]: 860000 M⁻¹ s⁻¹

binding result [7]: binds
B2: AorC, medium FAD-containing subunit of aldehyde oxidoreductase AORAa from Aromatoleum aromaticum EbN1 (natural protein, UniProt Q5P142 1-424, looked up)
chain: MKHVILGNGPAGVIAAETLRRAAPTDDILLFGSEDAPPYSRMAIPYLLEGNIDESGTWLRKSPGHFDRLRIHEMRGRAVSLDSERRRILFDDGHFESWDRLLIATGSHPVRPPIPGIDLPEVQTCWTLEDARAIARFATPGARVLQLGAGFIGCIIMEALAARGVELTVVEMGDRMVPRMMTPTAGGMIRKWVEDQGVRVVTNAGVSRIDCRASNDAPLDVTLSTGEVVVADLVIVAAGVAPNIAFLEATPVHVAKGVLVDDRLQTSVPGIFAAGDVAEAPDLFTGAHLVAAIQPNAADQARVAALNMAGHEARLKGVLAINVLDTLGLISSSFGQWWGEERERGGAGVEHVDEAAYRYLSLQFKDDVLIGATSIGLTEHVGALRGLIHGRVRLGEWKERLLHSPLQFVDAYIARSQQPMALVR
notes: AorC, medium-sized subunit (46 kDa on SDS-PAGE) of the tungsten-containing aldehyde oxidoreductase of Aromatoleum aromaticum EbN1; predicted FAD-containing; also called medium subunit; medium-sized subunit; source: purified from A. aromaticum EbN1 strain SR7Δpdh as part of AORAa (DEAE-sepharose, hydroxyapatite, Superdex 200)

binding result [7]: binds
B3: AorA, small subunit of aldehyde oxidoreductase AORAa from Aromatoleum aromaticum EbN1 (natural protein, UniProt Q5P144 1-158, looked up)
chain: MWKSLHIDPAKCTGCLQCEMACSYEHTGVINPSKSRIKVFSFEHEGRKVPYTCTQCTEAWCLHSCPVDAIRLDLTTGAKMVFEDTCVGCKVCTIACPFGTINYNQDTGKVQKCDLCEGDPACAKACPTAAITYIDADWTGLARMQAWAAKANTPASAA
notes: AorA, small subunit (17 kDa on SDS-PAGE) of the tungsten-containing aldehyde oxidoreductase of Aromatoleum aromaticum EbN1; predicted to contain four [Fe4S4] clusters; also called electron transfer subunit; aorA gene product; source: purified from A. aromaticum EbN1 strain SR7Δpdh as part of AORAa (DEAE-sepharose, hydroxyapatite, Superdex 200)
